Reference: patent US20110280881A1, “NOVEL ANTI-HSP90 MONOCLONAL ANTIBODY” (RIKEN, priority 2010, published 2011)

Experiments:
HSP90 = experiment: Western blot of DC2.4 dendritic cell line extract with anti-HSP90 antibodies; format: binding; details: SDS-PAGE
Protocol: A BALE/c mouse was twice immunized with 50 μg of human recombinant HSP90α (prepared using an Escherichia coli expression vector supplied by Professor Takayuki Nemoto at the Nagasaki University School of Dentistry; see J. Biol. Chem. 272:26179-26187, 1997). The adjuvant used was 50 μl of TiterMax Gold (TiterMax, Ga., USA). Three days after final immunization, splenocytes were taken out from the immunized mouse and fused with P3U1 myeloma cells in a 1:1 ratio by means of polyethylene glycol 4000. The fused cells were seeded to a 96-well plate at 5000 cells/well and cultured in an HAT selection culture broth (an RPMI containing 10% FCS, supplemented with 0.1 mM hypoxanthine, 0.016 mM thymidine, and […] aminopterin) for 10 days. The antibodies against HSP90a present in the supernatants in wells containing proliferated cells were detected by ELISA. The hybridomas secreting the antibodies against HSP90α were re-seeded at 0.2 cells/well and further cultured using an HT selection culture broth (an RPMI containing 10% FCS, supplemented with 0.1 mM hypoxanthine and 0.016 mM thymidine) for 10 days. For the antibodies in the supernatants of proliferated cells, it was confirmed using ELISA and Western blotting that antibodies against HSP90 were secreted. […]

[1] = tested on: cell surface HSP90 on DC2.4 cells; experiment: Inhibition of 6H8-OVA cross-presentation by pre-treatment of DC2.4 cells with antibodies; format: cell-based; details: antibody 20 μg/ml 15 minutes, then 6H8-OVA 3 or 1 μg/ml, IFNγ ELISA
Protocol: Pellets of DC2.4 cells (1.5×10^6 cells) were incubated with 20 μg/ml of each antibody [6H8D2 (6H8), 2A6E9 (2A6) or 4B6G12 (456)] at 37° C. with 5% CO2 for 15 minutes. Subsequently, 6H8-OVA was added to a concentration of 3 or 1 μg/ml, and the pellets were incubated at 37° C. with 5% CO2 for 3 hours. After being washed to remove the unreacted antibody and 6H8-OVA, the cells were fixed in 0.5% para-formaldehyde. These cells (1×10^4 cells) were co-cultured with 1×10^5 OT-I CD8^+ T cells in a 96-well round-bottomed plate at 37° C. with 5% CO2; the supernatant was recovered as appropriate and assayed for IFNγ according to a standard ELISA method.

OT-I CD8+ T cells = experiment: In vivo differentiation of transferred OT-I CD8+ T cells into memory T cells (CD44); set-up: species or system mouse; details: 3 μg tail vein, 96 hours, compared with group that did not receive 6H8-OVA
Protocol: (1) 2×10^6 CD8^+ cells of an OT-I/CD45.1 mouse were transferred to a C57BL/6 mouse from the tail vein, with 3 μg of 6H8-OVA or PBS administered from the tail vein concurrently. (2) 96 hours later, the mouse spleen was recovered, and 2×10^6 splenocytes were stained with the following antibodies in a 96-well round-bottomed plate for 30 minutes (while cooling on ice).
PE-anti-mouse/human CD44 (eBioscience: Cat No. 12-0041), concentration: 1 μg/ml, amount used: 100 μl.
Biotin-anti-CD45.1 (eBioscience: 13-0453), concentration: 2.5 μg/ml, amount used: 100 μl.
(3) After being washed twice with PBS, the cells were stained with the following antibody for 30 minutes (while cooling on ice).
Streptavidin-APC (BioLegend: 405207), concentration: 0.2 μg/ml, amount used: 100 μl.
(4) After being washed twice with Annexin-binding buffer, the cells were stained with FITC-Annexin V using the Annexin V FITC reagent for 10 minutes (while cooling on ice).
(5) Fluorescence was determined using FACS Canto (BD).

cell surface HSP90 = experiment: FACS of 6H8-OVA bound to DC2.4 and DC2.4L cells with anti-OVA antibody; format: binding
Protocol: Furthermore, using DC2.4L cells lacking cell surface HSP90 (a line detectable with 6H8 antibody, and showing decreased expression levels of cell surface HSP90 and H-2K^b; obtained during cultivation of DC2.4 and established by passage culture), the specificity of 6H8-OVA for cell surface HSP90 was examined. DC2.4 and DC2.4L cells were incubated along with the fractions 15 to 19 containing 6H8-OVA (mixture) (30 μg/ml), after which the cells were stained with the biotinylated anti-OVA monoclonal antibody and PE-Cy5 streptavidin, and analyzed by FACS.

[2] = tested on: MO5 (OVA-expressing melanoma); experiment: Pulmonary metastasis model with MO5 (OVA-expressing melanoma); format: in vivo, mouse; details: MO5 i.v.; 4 days later 6H8-OVA (10 mg) i.v.; counted 15 days later
Protocol: The pulmonary metastasis suppressing effect of 6H8-OVA was examined in a pulmonary metastasis model that is generated by transvenously administering MO5 (OVA-expressing melanoma) to a mouse. MO5 was administered to the mouse from a vein; 4 days later, PBS or 6H8-OVA (10 mg) was administered from a vein. 15 days later, pulmonary metastatic spots were counted.

specific CTL = experiment: Specific CTL induction in immunized mice, comparison with IFA+OVA257-264; format: in vivo, mouse; details: immunized twice at 1-week interval, tail vein; tetramer-positive cells in CD8-positive cells
Protocol: Mice were immunized twice with 6H8-OVA or IFA+OVA at a 1-week interval. For 6H8-OVA, the specified amount of 6H8-OVA was diluted in 200 μl of PBS and administered from the tail vein. For IFA+OVA, an emulsion was prepared so that the specified amount of OVA257-264 peptide would be contained in the 200 μl dose, and subcutaneously administered. The emulsion was prepared by mixing the required amount of the OVA257-264 peptide in PBS in advance, and adding an equal amount of IFA (SIGMA: F5506) thereto.
Seven days after final immunization, the spleen of each recipient mouse was collected and finely loosened using tweezers, and splenocytes were recovered. A pellet of splenocytes was prepared in a 15-ml tube, and 2 ml of an FCS-free complete RPMI containing the OVA257-264 peptide (final concentration 10^−5 M) was added thereto. With the lid of the tube loosened, the tube was allowed to stand in an incubator at 37° C. with 5% CO2 for 1 hour. Subsequently, the culture broth RPMI (containing 10% FCS) was added to adjust the total volume to 20 ml, and 2 ml each was put into a 24-well plate.
After 5 days of cultivation, the cells were recovered and stained using the H-2K^b+OVA257-264-specific tetramer (MBL: TS-5001-1) and FITC-anti-mouse CD8a (eBioscience: 11-0081), and induction of specific CTL was confirmed using FACS Canto. […]

Molecule | detection of HSP90 in Western blot (HSP90) | effect of antibody pre-treatment on the cross-presentation effect of 6H8-OVA [1] | expression level of CD44 on transferred OT-I CD8+ T cells (OT-I CD8+ T cells) | staining of DC2.4L cells with anti-OVA antibody after incubation with conjugate (cell surface HSP90; DC2.4L cells lacking cell surface HSP90, 30 μg/ml) | staining of DC2.4 cells with anti-OVA antibody after incubation with conjugate (cell surface HSP90; DC2.4 cells expressing cell surface HSP90, 30 μg/ml) | pulmonary metastatic spots [2] | CTL induction compared with IFA+OVA (specific CTL)
6H8: anti-HSP90 monoclonal antibody produced by hybridoma FERM BP-11222; epitope … (antibody) VH: QVQLQQSGPELVKPGASVRISCKASGYTFTSYYIHWVKQRPGQGLEWIGWIYPGNVNTKYNEKFKGKATLTADKSSSTAYMQLSSLTSEDSAVYFCARYGNYPFAYWGQGTLVTVSAAKTTAPSVYPLAPVCGDTTGSSVTLGCLVKGYF VL: DVVMTQTPLSLPVSLGDQASISCRSSQSLVHSNGNTYLHWYLQKPGQSPKLLIYKVSNRFSGVPDRFSGSGSGTDFTLKISRVEAEDLGVYFCSQSTHVPPTFGGGTKLEIKRADAAPTVSIFPPSSEQLTSGGASVVCFLNNFYPKDINVKWKIDGS | detected HSP90 as a single band | attenuated | – | – | – | – | –
6H8-OVA: high molecular weight conjugate of the 6H8 antibody and maleimide-activated OVA (conjugate) VH: QVQLQQSGPELVKPGASVRISCKASGYTFTSYYIHWVKQRPGQGLEWIGWIYPGNVNTKYNEKFKGKATLTADKSSSTAYMQLSSLTSEDSAVYFCARYGNYPFAYWGQGTLVTVSAAKTTAPSVYPLAPVCGDTTGSSVTLGCLVKGYF VL: DVVMTQTPLSLPVSLGDQASISCRSSQSLVHSNGNTYLHWYLQKPGQSPKLLIYKVSNRFSGVPDRFSGSGSGTDFTLKISRVEAEDLGVYFCSQSTHVPPTFGGGTKLEIKRADAAPTVSIFPPSSEQLTSGGASVVCFLNNFYPKDINVKWKIDGS GSIGAASMEFCFDVFKELKVHHANENIFYCPIAIMSALAMVYLGAKDSTRTQINKVVRFDKLPGFGDSIEAQCGTSVNVHSSLRDILNQITKPNDVYSFSLASRLYAEERYPILPEYLQCVKELYRGGLEPINFQTAADQARELINSWVESQTNGIIRNVLQPSSVDSQTAMVLVNAIVFKGLWEKAFKDEDTQAMPFRVTEQESKPVQMMYQIGLFRVASMASEKMKILELPFASGTMSMLVLLPDEVSGLEQLESIINFEKLTEWTSSNVMEERKIKVYLPRMKMEEKYNLTSVLMAMGITDVFSSSANLSGISSAESLKISQAVHAAHAEINEAGREVVGSAEAGVDAASVSEEFRADHPFLFCIKHIATNAVLFFGRCVSP | – | – | increased | not recognized by the OVA monoclonal antibody | recognized by the anti-OVA monoclonal antibody | almost no metastatic spots | as effective as, or more effective than, IFA+OVA
